B1: PKD2L1 (parent)
chain: TLARCAKDILGFAVMFFIVFFAYA

Variants of: B1
Test: protein stability index of a GFP-peptide fusion (GPS, HEK-293T) (PSI 1-6); higher = more stable
Settings: c terminus: a fixed tail appended
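Further: lentivirally expressed fusions sorted by FACS into six bins by GFP to DsRed ratio, PSI derived from sequencing read proportions per bin multiplied by bin number.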

Row | Variant | protein stability index
1 | TKARCAKDILGFAVMFFIVFFAYA [L2K] | 1.84
2 | THARCAKDILGFAVMFFIVFFAYA [L2H] | 2.35
3 | TYARCAKDILGFAVMFFIVFFAYA [L2Y] | 2.51
4 | TLARCAKDILGFAVMFFIVPFAYA [F20P] | 3.48
5 | TLARCAKDILGFAVMFFIVEFAYA [F20E] | 2.77
6 | TLARCAKDILGFAVMFFIVVFAYA [F20V] | 3.23
7 | TLARCAKDILGFAVMFFIVAFAYA [F20A] | 1.99
8 | TLARCAKDILGFAVMFFIVGFAYA [F20G] | 2.03
9 | TLARCAKDTLGFAVMFFIVFFAYA [I9T] | 1.58
10 | TLARCAKDQLGFAVMFFIVFFAYA [I9Q] | 1.84
11 | TLARCAKDWLGFAVMFFIVFFAYA [I9W] | 2.43
12 | TLARCAKDHLGFAVMFFIVFFAYA [I9H] | 2.46
13 | TLARCAKDPLGFAVMFFIVFFAYA [I9P] | 1.93
14 | TLARCAKDILGFKVMFFIVFFAYA [A13K] | 3.14
15 | TLARCAKDILGFCVMFFIVFFAYA [A13C] | 2.25
16 | TLARCAKDILGFDVMFFIVFFAYA [A13D] | 1.84
17 | TLARCAKDILGFHVMFFIVFFAYA [A13H] | 2.15
18 | TLARCAKDILGFPVMFFIVFFAYA [A13P] | 1.65
19 | TLARCAKDILGFAVMFFIVFFAYP [A24P] | 3.52
20 | TLARCAKDILGFAVMHFIVFFAYA [F16H] | 2.28
21 | TLARCAKDILGFAVMAFIVFFAYA [F16A] | 2.21
22 | TLARCAKDILGFAVMMFIVFFAYA [F16M] | 2.98
23 | TLARCAKDILGFAVMQFIVFFAYA [F16Q] | 4.27
24 | TLARCAKDILGFAVMNFIVFFAYA [F16N] | 2.6

Row | Variant | protein stability index
25 | TLARCAKDILGFAVMLFIVFFAYA [F16L] | 3.69
26 | TLARCAKDIVGFAVMFFIVFFAYA [L10V] | 2.92
27 | TLARCAKDIAGFAVMFFIVFFAYA [L10A] | 2.38
28 | TLARCAKDIYGFAVMFFIVFFAYA [L10Y] | 2.38
29 | TLARCAKDIWGFAVMFFIVFFAYA [L10W] | 2.49
30 | TLARCAKDIFGFAVMFFIVFFAYA [L10F] | 1.91
31 | TLARCAKAILGFAVMFFIVFFAYA [D8A] | 2.77
32 | TLARCAKMILGFAVMFFIVFFAYA [D8M] | 2.76
33 | TLARCAKLILGFAVMFFIVFFAYA [D8L] | 2.47
34 | TLARCAKTILGFAVMFFIVFFAYA [D8T] | 3.06
35 | TLARCAKWILGFAVMFFIVFFAYA [D8W] | 2.88
36 | TLARCAKKILGFAVMFFIVFFAYA [D8K] | 2.07
37 | TLARCAKYILGFAVMFFIVFFAYA [D8Y] | 2.7
38 | TLARCAKDILGAAVMFFIVFFAYA [F12A] | 1.42
39 | TLARCAKDILGLAVMFFIVFFAYA [F12L] | 3.16
40 | TLARCAKDILGKAVMFFIVFFAYA [F12K] | 2.33
41 | TLARCAKDILGTAVMFFIVFFAYA [F12T] | 1.89
42 | TLARCAKDILGFAVMFAIVFFAYA [F17A] | 1.79
43 | TLARCAKDILGFAVMFNIVFFAYA [F17N] | 1.56
44 | TLARCAKDILGFAVMFTIVFFAYA [F17T] | 2.4
45 | TLARCAKDILGFAVMFEIVFFAYA [F17E] | 2.32
46 | TLARCAKDILGFAVMFRIVFFAYA [F17R] | 2.98
47 | TLAPCAKDILGFAVMFFIVFFAYA [R4P] | 2.65
48 | TLAICAKDILGFAVMFFIVFFAYA [R4I] | 2.64

Row | Variant | protein stability index
49 | TLALCAKDILGFAVMFFIVFFAYA [R4L] | 3.07
50 | TLARCAKDILGFAVMFFIDFFAYA [V19D] | 3.22
51 | TLARCAKDILGFAVMFFIGFFAYA [V19G] | 2.34
52 | TLARCAKDILGFAVMFFILFFAYA [V19L] | 3.88
53 | TLARCAKDILGFAVYFFIVFFAYA [M15Y] | 1.72
54 | TLARCAKDILGFAVRFFIVFFAYA [M15R] | 3.16
55 | TLARCAKDILGFAVCFFIVFFAYA [M15C] | 2.86
56 | TLARCAKDILGFAVGFFIVFFAYA [M15G] | 2.48
57 | TLARCAKDILGFAVVFFIVFFAYA [M15V] | 1.88
58 | TLARCAKDILGFAVEFFIVFFAYA [M15E] | 2.61
59 | TLARCAKDILGFAVMFFIVFFSYA [A22S] | 3.22
60 | TLARCAKDILGFAVMFFIVFFCYA [A22C] | 4.15
61 | TLARCAKDILGFAVMFFIVFFQYA [A22Q] | 2.21
62 | TLARCAKDILGFAVMFFIVFGAYA [F21G] | 2.08
63 | TLARCAKDILGFAVMFFIVFAAYA [F21A] | 2.11
64 | TLARCAKDILGFAVMFFIVFHAYA [F21H] | 2.98
65 | TLARCAKDILGFAVMFFIVFSAYA [F21S] | 2.01
66 | TLARCAKDILGFAVMFFIVFMAYA [F21M] | 2.54
67 | TLARCAKDILGFAVMFFIVFTAYA [F21T] | 2.88
68 | TLARCAKDILGFAVMFFIVFYAYA [F21Y] | 3.96
69 | TLARCAKDILGFAVMFFIVFCAYA [F21C] | 3.17
70 | TLARCAKDILGFAVMFFIVFNAYA [F21N] | 2.78
71 | FLARCAKDILGFAVMFFIVFFAYA [T1F] | 3.18
72 | NLARCAKDILGFAVMFFIVFFAYA [T1N] | 2.67

Row | Variant | protein stability index
73 | MLARCAKDILGFAVMFFIVFFAYA [T1M] | 4.2
74 | RLARCAKDILGFAVMFFIVFFAYA [T1R] | 1.72
75 | LLARCAKDILGFAVMFFIVFFAYA [T1L] | 2
76 | TLNRCAKDILGFAVMFFIVFFAYA [A3N] | 1.53
77 | TLERCAKDILGFAVMFFIVFFAYA [A3E] | 3.11
78 | TLARCAKDILGFATMFFIVFFAYA [V14T] | 2.07
79 | TLARCAKDILGFAQMFFIVFFAYA [V14Q] | 2.46
80 | TLARCAKDILGFALMFFIVFFAYA [V14L] | 3.47
81 | TLARCAKDILGFASMFFIVFFAYA [V14S] | 2.61
82 | TLARCAKDILGFAAMFFIVFFAYA [V14A] | 2.06
83 | TLARAAKDILGFAVMFFIVFFAYA [C5A] | 2.49
84 | TLARHAKDILGFAVMFFIVFFAYA [C5H] | 1.6
85 | TLARVAKDILGFAVMFFIVFFAYA [C5V] | 2.5
86 | TLARPAKDILGFAVMFFIVFFAYA [C5P] | 1.71
87 | TLARCARDILGFAVMFFIVFFAYA [K7R] | 2.29
88 | TLARCAWDILGFAVMFFIVFFAYA [K7W] | 2.57
89 | TLARCAADILGFAVMFFIVFFAYA [K7A] | 2.16
90 | TLARCAKDILPFAVMFFIVFFAYA [G11P] | 1.81
91 | TLARCAKDILDFAVMFFIVFFAYA [G11D] | 2.28
92 | TLARCAKDILTFAVMFFIVFFAYA [G11T] | 3.47
93 | TLARCAKDILSFAVMFFIVFFAYA [G11S] | 3.06
94 | TLARCAKDILEFAVMFFIVFFAYA [G11E] | 3.51

Reference: the supplement of paper PMC10567573
